Consider four molecules from US20240254227A1 (Alector, published 2024).

T1: recombinant murine CD300LB overexpressed on BaF/3 cells (mouse, UniProt Q3U497 18-209)
T1 sequence: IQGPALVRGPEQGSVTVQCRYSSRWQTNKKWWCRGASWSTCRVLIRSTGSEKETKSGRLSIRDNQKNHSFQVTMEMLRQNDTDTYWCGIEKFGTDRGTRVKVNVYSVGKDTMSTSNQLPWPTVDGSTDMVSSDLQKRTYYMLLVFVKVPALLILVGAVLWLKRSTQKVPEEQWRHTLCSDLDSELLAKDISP

T2: murine CD300LB-Fc (mouse)
T2 construct: mouse IgG2a-Fc fusion (R&D Systems); the entry is the whole fusion chain; also called mCD300LB; Mouse CD300LB-Fc
T2 chain: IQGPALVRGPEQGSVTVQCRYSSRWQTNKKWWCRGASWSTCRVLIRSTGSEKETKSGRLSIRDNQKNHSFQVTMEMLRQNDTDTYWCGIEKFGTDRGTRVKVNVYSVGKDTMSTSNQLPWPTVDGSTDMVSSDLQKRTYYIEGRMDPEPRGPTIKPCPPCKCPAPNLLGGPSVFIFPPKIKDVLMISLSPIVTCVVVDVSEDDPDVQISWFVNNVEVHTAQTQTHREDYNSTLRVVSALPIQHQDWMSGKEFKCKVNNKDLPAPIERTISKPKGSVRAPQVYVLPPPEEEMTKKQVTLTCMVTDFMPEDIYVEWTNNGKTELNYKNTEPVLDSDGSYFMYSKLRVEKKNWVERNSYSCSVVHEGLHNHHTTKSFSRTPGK

T3: murine CD300E-Fc (mouse)
T3 construct: mouse IgG2a-Fc fusion (R&D Systems); the entry is the whole fusion chain; also called mCD300E; Mouse CD300E-Fc
T3 chain: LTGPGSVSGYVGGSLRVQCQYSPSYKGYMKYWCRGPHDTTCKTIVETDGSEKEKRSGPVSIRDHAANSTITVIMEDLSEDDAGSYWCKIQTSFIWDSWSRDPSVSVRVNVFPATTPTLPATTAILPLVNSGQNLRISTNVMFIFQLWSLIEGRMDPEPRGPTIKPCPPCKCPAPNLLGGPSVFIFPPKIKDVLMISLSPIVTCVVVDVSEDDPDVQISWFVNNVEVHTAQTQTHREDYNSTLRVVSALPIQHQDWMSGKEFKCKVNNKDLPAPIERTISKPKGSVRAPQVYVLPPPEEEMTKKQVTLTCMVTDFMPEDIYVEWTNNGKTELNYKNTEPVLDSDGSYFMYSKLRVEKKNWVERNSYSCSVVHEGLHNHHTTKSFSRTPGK

T4: murine CD300LB stably expressed on Jurkat cells (mouse, UniProt Q3U497 18-209)
T4 construct: also called muCD300LB; mouse CD300LB
T4 sequence: T1 sequence

T5: murine CD300LB on wild type mouse bone marrow macrophages (mouse, UniProt Q3U497 18-209)
T5 construct: Endogenous receptor on primary cells; also called mCD300LB; Wt BMM
T5 sequence: T1 sequence

B1: anti-CD300LB antibody CD-15 (antibody, V domains shown)
VH: QIQLVQSGPELKKPGETVKISCQVSGYTFTDYSMHWLKQAPGKGLKWMAWINTETGESTYTDEFKGRFVFSLETSVRTAYLKINNLKNEDTATYFCGTYGSSYGMAYWGQGTSVTVSS
VL: DIVLTQSPASLPVSLGQRATISCRASKSVSTSGSSYLHWYQQKPGQPPKLLIYLASKLESGVPARFRGSGSGTDFTLNIHPVEEEDAATYYCQHNREVPPTFGGGTKLEIK
B2: anti-CD300LB antibody CD-16 (antibody, V domains shown)
VH: QIQLVQSGPELKKPGETVKISCKASGYTFTDYSMHWVKQAPGKGLKWMAWINTETGEPTYADDFRGRFAFSLETSGRTAYLEINNLRNEDTATYFCVTYGSSYGMAYWGQGTSVTVSS
VL: B1 VL with P12A, T31R, S34Y, R67S, E84A, V98I
B3: anti-CD300LB antibody CD-17 (antibody, V domains shown)
VH: QIQLVQSGPELKKPGETVKISCKASGYTLTDYSMHWVKQAPGKGLKWMGWINTETGEPRYGDDFKGRFAFSLETSASSAYLQINNLKNDDTATYFCATYGRSYGMDFWGQGTSVTVSS
VL: B1 VL with P12A, T31P, S34H, L37M, K57N, E59K, R67S, E85G, V98L, T106S
B4: anti-CD300LB antibody CD-18 (antibody, V domains shown)
VH: DVQLQESGPDLVKPSQSLSLTCTVTGYSITSGYSWHWIRQFPDNKLEWMGYILSRGDTNFNPSLKSRISITRSTSNNQFFLHFNSVTTEDTATYYCARDFFDYWGQGTTLTVSS
VL: DVLMTQTPLSLPVSLGDQASISCRSSQSIVHSNGNTYLEWYLQKPGQSPKLLIYKVSDRFSGVPDRFSGSGSGTDFTLKISRVEAEDLGVYFCFQGSHVPYTFGGGTKLEIK

Where a chain is given by its changes, count along the chain named.

The target of one assay is T1, recombinant murine CD300LB …. Kind of assay: cell-based or functional assay.
In the case of B1, the “Luminescence in BaF/3” value worked out at 23000.

As to B2, the “Luminescence in BaF/3” value worked out at 792.

B3: the “Luminescence in BaF/3” value worked out at 24700.

Consider B4, for which the “Luminescence in BaF/3” value worked out at 13000.

The next assay deals with T2, murine CD300LB-Fc. Kind of assay: SPR (Carterra LSA), antibody immobilised, Fc fusion at 300 or 600 nM. Here is the method:
(§1) Binding of mouse anti-CD300LB IgG1 antibodies of the present disclosure to human and murine CD300 orthologs were evaluated by surface plasmon resonance (SPR) using a Carterra LSA instrument (Carterra, Salt Lake City, UT). […] A HC200M sensor chip (Carterra) was activated using the single channel flow cell with a 7-minute injection of a 1:1:1 mixture of 100 mM MES pH 5.5, 100 mM sulfo-NHS, 400 mM EDC (all reconstituted in MES pH 5.5; 100 μL of each mixed in vial immediately before running assay). After switching to the multi-channel array flow cell, the antibodies were injected over the activated chip in a 96-spot array for 10 minutes. The remaining unconjugated active groups on the chip were then blocked by injecting 1M Ethanolamine pH 8.5 (Carterra) for 7 minutes using the single channel flow cell. After priming with running buffer (HBS-TE, Carterra) with 0.5 mg/ml BSA (Sigma), the immobilized anti-CD300LB antibodies were tested for their ability to bind human and mouse recombinant CD300LB extracellular domains. Human CD300 family members and mouse CD300A were hIgG1-Fc fusions, while mouse CD300LB, mouse CD300C, mouse CD300D, and mouse CD300E were mouse IgG2a-Fc fusions (R&D Systems). Binding was assessed by injecting each analyte over the entire antibody array using the single channel flow cell. CD300 analytes were diluted to 300 nM or 600 nM in running buffer and injected in series without regeneration. Two or three buffer blanks were run between each mouse or human ortholog, respectively. Data were processed and analyzed using NextGenKIT high-throughput kinetics analysis software (Carterra).
(§2) Results of anti-CD300LB antibody binding to murine CD300 family members is provided below in Table 8.
In the case of B1, the “SPR binding (control subtracted)” value was 50.

In the case of B2, the “SPR binding (control subtracted)” value came to 310.

As to B3, the “SPR binding (control subtracted)” value came out at 11.3.

For the molecule B4, the “SPR binding (control subtracted)” value turned out to be 328.

The target of the next assay is T6, murine CD300A-Fc (mouse).
T6 construct: hIgG1-Fc fusion; the entry is the whole fusion chain; also called mCD300A; Mouse CD300A-Fc
T6 sequence (chain, as listed by the source limits assumed): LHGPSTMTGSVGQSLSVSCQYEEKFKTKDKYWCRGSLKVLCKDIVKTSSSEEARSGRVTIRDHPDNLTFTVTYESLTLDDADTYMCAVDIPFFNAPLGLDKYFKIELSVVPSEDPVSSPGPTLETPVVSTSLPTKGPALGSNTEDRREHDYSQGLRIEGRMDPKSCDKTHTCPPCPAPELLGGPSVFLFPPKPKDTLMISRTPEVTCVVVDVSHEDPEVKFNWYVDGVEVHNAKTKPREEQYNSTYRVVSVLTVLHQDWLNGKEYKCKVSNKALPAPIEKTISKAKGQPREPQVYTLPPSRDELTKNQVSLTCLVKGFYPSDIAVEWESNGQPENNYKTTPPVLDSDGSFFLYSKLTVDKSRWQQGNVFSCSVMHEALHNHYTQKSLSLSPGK
The description is as above. How it is done: as §1, §2
For B1, the “SPR binding (control subtracted)” value is 7.1.

In the case of B2, the “SPR binding (control subtracted)” value is -1.9.

Take B3: the “SPR binding (control subtracted)” value came out at 2.9.

As for B4, the “SPR binding (control subtracted)” value is 2.9.

A further assay deals with T3, murine CD300E-Fc. Described as above. Here is the method:
as §1, §2
As for B1, the “SPR binding (control subtracted)” value came out at 0.8.

As to B2, the “SPR binding (control subtracted)” value amounted to 8.6.

Turning to B3, the “SPR binding (control subtracted)” value is -0.7.

B4: the “SPR binding (control subtracted)” value was -0.1.

The next assay addresses T4, murine CD300LB stably expressed on …. Kind of assay: flow cytometry, stable Jurkat cells, supernatant or 10 ug/mL, isotype subtracted. Here is the method:
Purified anti-CD300LB antibodies of the present disclosure were also evaluated for species cross-reactivity to mouse and human CD300LB stably expressed in Jurkat cells (generation of which is described above). Cells were counted and labeled with 200 nM CFSE, 500 nM VioBlue, or a combination of the two to discriminate between human CD300LB, Parental cells and mouse CD300LB. Cells were washed thoroughly with PBS containing 2% fetal bovine serum then resuspended at a total of 240,000 cells per well. Hybridoma supernatants (100 L) or purified antibodies at 10 μg/mL were added and incubated for one hour before the cells were washed again and stained with an APC-labeled anti-human or anti-mouse secondary. Cells were then analyzed using a BD FACSCanto II. Antibodies were analyzed for binding to mouse or human CD300LB by FlowJo software by gating on live cells, then the APC gMFI calculated for each labeled population by subtraction of the gMFI of the appropriate isotype control.
In the case of B1, the gMFI came out at 506 gMFI.

Turning to B2, the gMFI came to 504 gMFI.

Regarding B3, the gMFI came out at 1680 gMFI.

B4: the gMFI was 643 gMFI.

Another assay deals with T5, murine CD300LB on wild type mouse bone …. Kind of assay: flow cytometry, wild type mouse bone marrow macrophages, 10 ug/mL, isotype subtracted. Here is the method:
To further examine the specificity of the anti-CD300LB antibodies to muCD300LB, bone marrow macrophages (BMM) from wild type (WT) and CD300LB knockout mice (KO) were analyzed for antibody binding by flow cytometry. Bone marrow from these mice was harvested and plated into three 20 cm PETRI dishes in complete media containing 50 ng/mL murine M-CSF (Peprotech). Media was changed every three days until day 6, when cells were harvested. Cells were detached with PBS 3 mM EDTA, washed and counted and plated at 100,000 cells/well in a 96 well plate. Cells were incubated with murine Fc block (Clone 2.4G2, BD) then with 10 μg/mL anti-CD300LB antibodies for 30 minutes on ice. […] Cells were washed twice more with 150 μL FACS buffer then resuspended to 100 μL in FACS buffer analyzed using a BD Canto II flow cytometer to calculate the geometric MFI minus the gMFI of the isotype control. Dead cells were stained with live/dead staining kit (Invitrogen).
In general terms: In flow cytometry, cells or beads pass a laser one at a time.
As to B1, the gMFI worked out at 256 gMFI.

In turn, B2 displayed a gMFI of 233 gMFI.

B3 gave a gMFI of 1230 gMFI.

The molecule B4 came in with a gMFI of 1290 gMFI.
